Measurements reported in patent publication US12577536B2, “Method for isolating ureteric bud tip cells” (KYOTO UNIVERSITY, priority 2019, dated 2026).

Tested on: tip cell colonies
Assay: Reconstitution of iUB organoids from tip cell colonies
Assay type: cell-based, human
Details: organoid medium with Wnt3a conditioned medium and R-spondin 1 in place of CHIR99021
Procedure: Hydrogel was dissolved with Cell Recovery Solution (BD Biosciences) for 1 h at 4° C. to detach day 7 tip cell colonies. After washing with additional Cell Recovery Solution, the tip cell colonies were centrifuged at 500 g for 5 min at room temperature. Essential 6 medium containing 0.1 μM LDN193189, 100 ng/ml GDNF, 0.1 μM TTNPB, 200 ng/ml FGF8, 1 μM CHIR99021 or 10% Afamin/Wnt3a conditioned medium (MBL), 200 ng/ml R-spondin 1 (R&D systems), 50 ng/ml EGF, 200 ng/ml FGF1 and 10% Matrigel was applied to the tube including tip cell colonies. After pipetting gently with a wide-mouth micropipette (BMBio) not to break colonies, the suspension was distributed to low-attachment 35 mm dish (Sumitomo Bakelite) at 2 mL/dish. The medium was refreshed every 2 days. On day 4, each colony was placed onto one well of low-attachment 96-well plates in the same medium. After an additional 6 days, the tip region was separated from the reconstituted iUB organoid and treated with the same medium for 35 days.

B1: R-spondin 1: Wnt signaling activator (R&D systems) (protein, UniProt Q2MKA7 21-263, looked up)
R-spondin-1: SRGIKGKRQRRISAEGSQACAKGCELCSEVNGCLKCSPKLFILLERNDIRQVGVCLPSCPPGYFDARNPDMNKCIKCKIEHCEACFSHNFCTKCKEGLYLHKGRCYPACPEGSSAANGTMECSSPAQCEMSEWSPWGPCSKKQQLCGFRRGSEERTRRVLHAPVGDHAACSDTKETRRCTVRRVPCPEGQKRRKGGQGRRENANRNLARKESKEAGAGSRRRKGQQQQQQQGTVGPLTSAGPA
With B1 the “reconstitution of iUB organoids from tip cell colonies” value was “iUB organoids could be reconstituted from tip cell colonies derived from any iPS cell lines”.
